Test results as given in paper PMC3430870 (Nature structural & molecular biology, 2011).
Like-named read-outs stand apart in the source and are kept apart here.

Key:
Test in all cases: SPR
[1] = target: T1, mouse Wnt3a (mouse, UniProt P27467 19-352)
[2] = target: T1, mouse Wnt3a; remark: listed apart in the source
[3] = target: T1, mouse Wnt3a; remark: listed apart in the source
[4] = target: T1, mouse Wnt3a; remark: listed apart in the source
[5] = target: T1, mouse Wnt3a; remark: listed apart in the source

T1 sequence (P27467 19-352): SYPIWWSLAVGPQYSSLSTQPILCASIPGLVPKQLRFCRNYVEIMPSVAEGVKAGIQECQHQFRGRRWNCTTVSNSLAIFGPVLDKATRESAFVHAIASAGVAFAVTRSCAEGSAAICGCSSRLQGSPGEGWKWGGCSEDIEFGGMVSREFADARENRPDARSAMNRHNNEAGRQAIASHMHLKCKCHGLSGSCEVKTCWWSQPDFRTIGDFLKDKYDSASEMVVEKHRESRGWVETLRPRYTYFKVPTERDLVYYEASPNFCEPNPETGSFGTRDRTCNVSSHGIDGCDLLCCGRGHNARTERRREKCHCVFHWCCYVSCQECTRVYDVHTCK

| Binder | Kd [5] [µM] | other results |
| --- | --- | --- |
| WIF-1_(WD-EGF-I) (human WIF-1 residues 35-210) (domain or fragment, UniProt Q9Y5W5 35-210, looked up) SLYLWIDAHQARVLIGFEEDILIVSEGKMAPFTHDFRKAQQRMPAIPVNIHSMNFTWQAAGQAEYFYEFLSLRSLDKGIMADPTVNVPLLGTVPHKASVVQVGFPCLGKQDGVAAFEVDVIVMNSEGNTILKTPQNAIFFKTCQQAECPGGCRNGGFCNERRICECPDGFHGPHCE | 5.6 | Kd [1]: 16.9 µM; Kd [2]: 9.86 µM; Kd [3]: 15.9 µM; Kd [4]: 16.8 µM |
| WIF-1_(WD-EGF-I) Met77Trp (domain or fragment, human, UniProt Q9Y5W5 35-210, looked up) SLYLWIDAHQARVLIGFEEDILIVSEGKMAPFTHDFRKAQQRWPAIPVNIHSMNFTWQAAGQAEYFYEFLSLRSLDKGIMADPTVNVPLLGTVPHKASVVQVGFPCLGKQDGVAAFEVDVIVMNSEGNTILKTPQNAIFFKTCQQAECPGGCRNGGFCNERRICECPDGFHGPHCE | 2.86 | – |
| WIF-1_(EGFs I-V) (human WIF-1 residues 178-346) (domain or fragment, UniProt Q9Y5W5 178-346, looked up) QQAECPGGCRNGGFCNERRICECPDGFHGPHCEKALCTPRCMNGGLCVTPGFCICPPGFYGVNCDKANCSTTCFNGGTCFYPGKCICPPGLEGEQCEISKCPQPCRNGGKCIGKSKCKCSKGYQGDLCSKPVCEPGCGAHGTCHEPNKCQCQEGWHGRHCNKRYEASLI | 0.9 | – |
| WIF-1WD (WIF domain of human Wnt inhibitory factor 1, residues 35-178) (domain or fragment, UniProt Q9Y5W5 35-178, looked up) SLYLWIDAHQARVLIGFEEDILIVSEGKMAPFTHDFRKAQQRMPAIPVNIHSMNFTWQAAGQAEYFYEFLSLRSLDKGIMADPTVNVPLLGTVPHKASVVQVGFPCLGKQDGVAAFEVDVIVMNSEGNTILKTPQNAIFFKTCQ | 3.4 | – |
| WIF-1_(WD-EGFs I-III) (human WIF-1 residues 35-274) (domain or fragment, UniProt Q9Y5W5 35-274, looked up) SLYLWIDAHQARVLIGFEEDILIVSEGKMAPFTHDFRKAQQRMPAIPVNIHSMNFTWQAAGQAEYFYEFLSLRSLDKGIMADPTVNVPLLGTVPHKASVVQVGFPCLGKQDGVAAFEVDVIVMNSEGNTILKTPQNAIFFKTCQQAECPGGCRNGGFCNERRICECPDGFHGPHCEKALCTPRCMNGGLCVTPGFCICPPGFYGVNCDKANCSTTCFNGGTCFYPGKCICPPGLEGEQCE | 3.21 | – |
| WIF-1ΔC (human WIF-1 residues 35-346) (domain or fragment, UniProt Q9Y5W5 35-346, looked up) SLYLWIDAHQARVLIGFEEDILIVSEGKMAPFTHDFRKAQQRMPAIPVNIHSMNFTWQAAGQAEYFYEFLSLRSLDKGIMADPTVNVPLLGTVPHKASVVQVGFPCLGKQDGVAAFEVDVIVMNSEGNTILKTPQNAIFFKTCQQAECPGGCRNGGFCNERRICECPDGFHGPHCEKALCTPRCMNGGLCVTPGFCICPPGFYGVNCDKANCSTTCFNGGTCFYPGKCICPPGLEGEQCEISKCPQPCRNGGKCIGKSKCKCSKGYQGDLCSKPVCEPGCGAHGTCHEPNKCQCQEGWHGRHCNKRYEASLI | 0.0216 | – |
| WIF-1ΔC Met77Trp (domain or fragment, human, UniProt Q9Y5W5 35-346, looked up) SLYLWIDAHQARVLIGFEEDILIVSEGKMAPFTHDFRKAQQRWPAIPVNIHSMNFTWQAAGQAEYFYEFLSLRSLDKGIMADPTVNVPLLGTVPHKASVVQVGFPCLGKQDGVAAFEVDVIVMNSEGNTILKTPQNAIFFKTCQQAECPGGCRNGGFCNERRICECPDGFHGPHCEKALCTPRCMNGGLCVTPGFCICPPGFYGVNCDKANCSTTCFNGGTCFYPGKCICPPGLEGEQCEISKCPQPCRNGGKCIGKSKCKCSKGYQGDLCSKPVCEPGCGAHGTCHEPNKCQCQEGWHGRHCNKRYEASLI | 0.217 | – |
